Experimental data taken from the Immune Epitope Database (IEDB).

How the values were obtained:
HLA-B*57:01 [1] = assay: IEDB peptide-MHC binding, purified MHC/competitive/fluorescence; filed as Kd, often an IC50 or EC50 that approximates it; ≥ and ≤ were set here for values at or beyond the usual limits of such assays
HLA-A*69:01 = assay: as above
HLA-A*26:01 [2] = assay: as above
HLA-B*27:03 = assay: as above
HLA-A*03:01 [3] = assay: as above; settings: source organism: Entamoeba dispar SAW760
HLA-B*15:01 [4] = assay: as above
HLA-A*02:03 = assay: as above
HLA-A*02:01 [5] = assay: as above
HLA-A*68:02 = assay: as above
HLA-A*29:02 = assay: as above; settings: source organism: Entamoeba dispar SAW760
HLA-B*15:17 = assay: as above; settings: source organism: Entamoeba dispar SAW760
HLA-B*18:01 [6] = assay: as above
HLA-A*02:12 = assay: as above
HLA-B*46:01 [7] = assay: as above
HLA-A*02:11 = assay: as above
HLA-A*02:16 = assay: as above
HLA-B*39:01 [8] = assay: as above
HLA-A*24:03 = assay: as above
HLA-A*02:19 = assay: as above
HLA-B*51:01 = assay: as above
HLA-B*08:01 = assay: as above; settings: source organism: Shigella boydii Sb227
HLA-A*31:01 = assay: as above; settings: source organism: Coxiella burnetii RSA 331
HLA-A*26:03 = assay: as above; settings: source organism: Yersinia pestis Nepal516
HLA-A*01:01 = assay: as above; settings: source organism: Yersinia pestis Nepal516
HLA-A*02:06 = assay: as above; settings: source organism: Yersinia pestis Nepal516
HLA-A*26:02 = assay: as above; settings: source organism: Yersinia pestis Nepal516
HLA-B*57:01 [9] = assay: IEDB peptide-MHC binding, purified MHC/direct/fluorescence; filed as Kd, often an IC50 or EC50 that approximates it; ≥ and ≤ were set here for values at or beyond the usual limits of such assays; settings: source organism: Yersinia pestis
HLA-B*40:01 = assay: as above; settings: source organism: Yersinia pestis
HLA-B*07:02 = assay: as above; settings: source organism: Yersinia pestis
HLA-A*26:01 [10] = assay: as above; settings: source organism: Yersinia enterocolitica subsp. enterocolitica 8081
HLA-A*03:01 [11] = assay: as above; settings: source organism: Yersinia pestis
HLA-B*48:01 = assay: as above; settings: source organism: Yersinia pestis
HLA-B*15:01 [12] = assay: as above; settings: source organism: Yersinia pestis
HLA-A*02:01 [13] = assay: as above; settings: source organism: Yersinia pestis
HLA-B*08:03 = assay: as above; settings: source organism: Yersinia enterocolitica subsp. enterocolitica 8081
HLA-B*58:01 = assay: as above; settings: source organism: Yersinia pestis
HLA-B*18:01 [14] = assay: as above; settings: source organism: Yersinia pestis
HLA-B*46:01 [15] = assay: as above; settings: source organism: Yersinia pestis
HLA-B*27:05 = assay: as above; settings: source organism: Yersinia pestis
HLA-B*39:01 [16] = assay: as above; settings: source organism: Yersinia enterocolitica subsp. enterocolitica 8081
HLA-B*08:02 = assay: as above; settings: source organism: Yersinia enterocolitica subsp. enterocolitica 8081
[17] = source organism: Entamoeba dispar SAW760
[18] = source organism: Coxiella burnetii RSA 331
[19] = source organism: Deerpox virus W-848-83

FELLHFISS
Kd (HLA-B*57:01 [1]; [17]): ≥ 20 µM
Kd (HLA-A*69:01; [17]): ≥ 20 µM
Kd (HLA-A*26:01 [2]; [17]): ≥ 20 µM
Kd (HLA-B*27:03; [17]): ≥ 20 µM
Kd (HLA-A*03:01 [3]): ≥ 20 µM
Kd (HLA-B*15:01 [4]; [17]): ≥ 20 µM
Kd (HLA-A*02:03; [17]): ≥ 20 µM
Kd (HLA-A*02:01 [5]; [17]): ≥ 20 µM
Kd (HLA-A*68:02; [17]): ≥ 20 µM
Kd (HLA-A*29:02): ≥ 20 µM
Kd (HLA-B*15:17): ≥ 20 µM
Kd (HLA-B*18:01 [6]; [17]): 0.564 µM
Kd (HLA-A*02:12; [17]): ≥ 20 µM
Kd (HLA-B*46:01 [7]; [17]): ≥ 20 µM
Kd (HLA-A*02:11; [17]): ≥ 20 µM
Kd (HLA-A*02:16; [17]): ≥ 20 µM
Kd (HLA-B*39:01 [8]; [17]): ≥ 20 µM
Kd (HLA-A*24:03; [17]): ≥ 20 µM
Kd (HLA-A*02:19; [17]): ≥ 20 µM
Kd (HLA-B*51:01; [17]): ≥ 20 µM

FLSHKIHVI
Kd (HLA-B*08:01): 0.0861 µM
Kd (HLA-A*02:01 [5]; source organism: Shigella boydii Sb227): 0.0016 µM

HMNKLPLAK
Kd (HLA-B*57:01 [1]; [18]): ≥ 20 µM
Kd (HLA-A*69:01; [18]): ≥ 20 µM
Kd (HLA-A*26:01 [2]; [18]): ≥ 20 µM
Kd (HLA-B*27:03; [18]): ≥ 20 µM
Kd (HLA-B*15:01 [4]; [18]): ≥ 20 µM
Kd (HLA-A*02:03; [18]): ≥ 20 µM
Kd (HLA-A*02:01 [5]; [18]): ≥ 20 µM
Kd (HLA-A*68:02; [18]): ≥ 20 µM
Kd (HLA-B*18:01 [6]; [18]): ≥ 20 µM
Kd (HLA-A*02:12; [18]): ≥ 20 µM
Kd (HLA-B*46:01 [7]; [18]): ≥ 20 µM
Kd (HLA-A*02:11; [18]): ≥ 20 µM
Kd (HLA-A*31:01): 0.223 µM
Kd (HLA-A*02:16; [18]): ≥ 20 µM
Kd (HLA-B*39:01 [8]; [18]): ≥ 20 µM
Kd (HLA-A*24:03; [18]): ≥ 20 µM
Kd (HLA-A*02:19; [18]): ≥ 20 µM
Kd (HLA-B*51:01; [18]): ≥ 20 µM

QWSPGPGRL
Kd (HLA-A*26:03): ≥ 20 µM
Kd (HLA-A*01:01): ≥ 20 µM
Kd (HLA-A*02:03; source organism: Yersinia pestis Nepal516): 4.85 µM
Kd (HLA-A*02:06): 0.157 µM
Kd (HLA-A*26:02): ≥ 20 µM
Kd (HLA-B*57:01 [9]): ≥ 20 µM
Kd (HLA-B*40:01): ≥ 20 µM
Kd (HLA-B*07:02): ≥ 20 µM
Kd (HLA-A*26:01 [10]): ≥ 20 µM
Kd (HLA-A*03:01 [11]): 0.719 µM
Kd (HLA-B*48:01): ≥ 20 µM
Kd (HLA-B*15:01 [12]): ≥ 20 µM
Kd (HLA-A*02:01 [13]): ≥ 20 µM
Kd (HLA-B*08:03): ≥ 20 µM
Kd (HLA-B*58:01): ≥ 20 µM
Kd (HLA-B*18:01 [14]): ≥ 20 µM
Kd (HLA-B*46:01 [15]): ≥ 20 µM
Kd (HLA-B*27:05): ≥ 20 µM
Kd (HLA-B*39:01 [16]): ≥ 20 µM
Kd (HLA-B*08:02): ≥ 20 µM

YVAGITLTH
Kd (HLA-B*57:01 [1]; [19]): ≥ 20 µM
Kd (HLA-A*69:01; [19]): ≥ 20 µM
Kd (HLA-B*27:03; [19]): ≥ 20 µM
Kd (HLA-A*02:03; [19]): ≥ 20 µM
Kd (HLA-A*02:01 [5]; [19]): ≥ 20 µM
Kd (HLA-B*18:01 [6]; [19]): ≥ 20 µM
Kd (HLA-A*02:12; [19]): ≥ 20 µM
Kd (HLA-A*02:11; [19]): ≥ 20 µM
Kd (HLA-A*02:16; [19]): ≥ 20 µM
Kd (HLA-B*39:01 [8]; [19]): ≥ 20 µM
Kd (HLA-A*02:19; [19]): ≥ 20 µM
Kd (HLA-B*51:01; [19]): ≥ 20 µM
